Data taken from patent publication US20240191188A1 (JUNO THERAPEUTICS, published 2024).

Molecular target: T1, soluble oligomeric streptavidin mutein (oligomer of Strep-tactin, n≥3, crosslinked with sulfo-SMCC and … (Streptomyces avidinii, UniProt P22629 38-163, chemically crosslinked with sulfo-SMCC and iminothiolan))
T1 construct: Oligomers of homo-tetramers separated from monomeric and dimeric mutein by size exclusion chromatography; no single molecular weight; also called soluble oligomeric Strep-tactin; oligomeric mutein streptavidin
Experiment: mixing of peptide-tagged Fab with soluble oligomeric streptavidin mutein at room temperature

B1: αCD28 Fab fragment derived from the monoclonal anti-human CD28 antibody CD28.3, heavy chain carboxy-terminally fused to the Twin-Strep-tag (monomeric) (Fab)
heavy (part 1 of 2): LQQSGAELVKPGASVRLSCKASGYTFTEYIIHWIKLRSGQGLEWIGWFYPGSNDIQYNAKFKGKATLTADKSSSTVYMELTGLTSEDSAVYFCARRDDFSGYDALPYWGQGTMVTV
heavy (part 2 of 2): not shown
light: DIQMTQSPASLSVSVGETVTITCRTNENIYSNLAWYQQKQGKSPQLLIYAATHLVEGVPSRFSGSGSGTQYSLKITSLQSEDFGNYYCQHFWGTPCTFGGGTKLEIKR
notes: Recombinantly produced in E. coli; also called anti-CD28 Fab fragment; αCD28 Fab fragment of the antibody 28.3; not shown: human kappa light chain constant domain
B1: binds.
